Results: WO2010108824A1 (dated 2010)

B1: human L-plastin (other, UniProt P13796 2-627, looked up)
chain: ARGSVSDEEMMELREAFAKVDTDGNGYISFNELNDLFKAACLPLPGYRVREITENLMATGDLDQDGRISFDEFIKIFHGLKSTDVAKTFRKAINKKEGICAIGGTSEQSSVGTQHSYSEEEKYAFVNWINKALENDPDCRHVIPMNPNTNDLFNAVGDGIVLCKMINLSVPDTIDERTINKKKLTPFTIQENLNLALNSASAIGCHVVNIGAEDLKEGKPYLVLGLLWQVIKIGLFADIELSRNEALIALLREGESLEDLMKLSPEELLLRWANYHLENAGCNKIGNFSTDIKDSKAYYHLLEQVAPKGDEEGVPAVVIDMSGLREKDDIQRAECMLQQAERLGCRQFVTATDVVRGNPKLNLAFIANLFNRYPALHKPENQDIDWGALEGETREERTFRNWMNSLGVNPRVNHLYSDLSDALVIFQLYEKIKVPVDWNRVNKPPYPKLGGNMKKLENCNYAVELGKNQAKFSLVGIGGQDLNEGNRTLTLALIWQLMRRYTLNILEEIGGGQKVNDDIIVNWVNETLREAKKSSSISSFKDPKISTSLPVLDLIDAIQPGSINYDLLKTENLNDDEKLNNAKYAISMARKIGARVYALPEDLVEVNPKMVMTVFACLMGKGMKRV
notes: mature; the assay field says which; also called L-fimbrin; endogenous L-plastin
B2: L-plastin nanobody 5 (VHH)
VHH: QVQLQESGGGLVQAGDSLRLSCAVSGGTFGRVGVGWFRRAPGKEREFVAAVNWSGISTFYADSVKGRFTISRDDNKHTVDLRMNSLKPEDSAVYFCATDFRFNVPMNGTEYDYWGQGTQVTVSS
notes: Alpaca VHH; His6-tagged recombinant protein (pHEN6c, E. coli) in ITC, gel filtration, pull-down, cross-linking and co-sedimentation; V5-tagged, MOM-V5-tagged or GFP-fused when expressed in PC-3 cells; also called Nb 5; Nb5

What was measured:
[1] = biological target: the molecule itself; test: Superdex 200 HR gel filtration of L-plastin alone
[2] = biological target: T1, GST-ABD1+2 of L-plastin (human, UniProt P13796 106-627); test: ITC, nanobody with GST-tagged L-plastin domain
T1 construct: domain: ABD1+2; also called both ABDs combined; combination of the two ABDs; not shown: glutathione S-transferase tag of vector pGEX-2T
T1 sequence (looked up): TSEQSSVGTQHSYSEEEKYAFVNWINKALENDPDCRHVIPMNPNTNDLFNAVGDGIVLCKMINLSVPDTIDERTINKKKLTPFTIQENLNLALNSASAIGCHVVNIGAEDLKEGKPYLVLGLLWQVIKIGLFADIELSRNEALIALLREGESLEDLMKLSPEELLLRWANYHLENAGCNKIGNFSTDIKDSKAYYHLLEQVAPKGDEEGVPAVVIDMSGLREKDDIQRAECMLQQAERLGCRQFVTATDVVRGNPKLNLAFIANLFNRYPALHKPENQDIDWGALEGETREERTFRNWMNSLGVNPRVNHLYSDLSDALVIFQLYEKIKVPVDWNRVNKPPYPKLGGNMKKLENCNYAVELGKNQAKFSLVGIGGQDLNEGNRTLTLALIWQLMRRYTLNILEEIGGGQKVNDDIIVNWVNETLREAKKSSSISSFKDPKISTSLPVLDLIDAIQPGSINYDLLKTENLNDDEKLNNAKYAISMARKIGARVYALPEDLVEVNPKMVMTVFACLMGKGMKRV

[3] = biological target: B1; test: ITC, L-plastin titrated with His6-tagged nanobody

Binder | binding result [1] | Kd [2] [nM] | Kd [3] [nM]
B1 | binds | – | –
B2 | – | 46.5 | ~40
